Measurements: PMC6368335, “Inhibition of the Staphylococcus aureus c-di-AMP cyclase DacA by direct interaction with the phosphoglucosamine mutase GlmM” (PLoS Pathogens, 2019)

Assays:
[1] = target: S. aureus phosphoglucosamine mutase GlmM, tag-less (S. aureus) (UniProt P0C0V7); assay: SEC-MALS + native MS; purified tag-less DacACD/GlmM complex; SEC-MALS: 100 ul at 18 mg/ml, Superdex 200 Increase 10/300, 30 mM Tris pH 7.5, 150 mM NaCl; native MS: 13.5 uM in 200 mM ammonium acetate
[2] = target: S. aureus phosphoglucosamine mutase GlmM, C-terminally His-tagged (GlmM-His) (S. aureus) (UniProt P0C0V7)
[3] = target: S. aureus phosphoglucosamine mutase GlmM, tag-less (S. aureus) (UniProt P0C0V7); assay: native MS; purified tag-less DacACD/GlmM complex, 13.5 uM in 200 mM ammonium acetate pH 7.5, nanoelectrospray, Waters Synapt QToF; species deconvoluted with Amphitrite; conditions: scale: DacACD per GlmM
[4] = target: S. aureus DacA catalytic domain (DacACD), tag-less (S. aureus); assay: as above
[5] = target: S. aureus DacA catalytic domain (DacACD), tag-less (S. aureus); assay: SEC; tag-less proteins after Ni-NTA and thrombin cleavage on a Superdex 200 10/300 column, UV at 280 nm
[6] = target: S. aureus phosphoglucosamine mutase GlmM, tag-less (S. aureus) (UniProt P0C0V7); assay: SEC-SAXS; tag-less DacACD, GlmM and the DacACD/GlmM complex on a Superdex 200 5/150 column coupled to the SAXS beam, 30 mM Tris pH 7.5, 150 mM NaCl; envelopes reconstructed, crystal structures fitted
[7] = target: S. aureus DacA catalytic domain (DacACD), tag-less (S. aureus); assay: as above
[8] = target: S. aureus DacACD-C variant (N166C, T172C), tag-less (S. aureus); assay: SEC; tag-less proteins after Ni-NTA and thrombin cleavage on a Superdex 200 10/300 column, UV at 280 nm
[9] = target: S. aureus DacACD-K variant (N166K, T172K), tag-less (S. aureus); assay: as above
[10] = target: the molecule itself; assay: native MS; purified tag-less DacACD/GlmM complex, 13.5 uM in 200 mM ammonium acetate pH 7.5, nanoelectrospray, Waters Synapt QToF; species deconvoluted with Amphitrite

S. aureus DacA catalytic domain (DacACD), tag-less (domain or fragment)
stoichiometry N (DacACD dimer per GlmM dimer (2:2)) [1]: 1
GlmM phosphoglucosamine mutase activity (coupled radioactive assay with GlmU), DacA in 5- to 400-fold excess over GlmM; no inhibition at 5- to 50-fold excess [2]: 15%
stoichiometry N [3]: 1
stoichiometry N [4]: 2
stoichiometry N [5]: 2
stoichiometry N (DacACD dimer per GlmM dimer) [6]: 1
stoichiometry N [7]: 2

S. aureus DacACD-C variant (N166C, T172C), tag-less (domain or fragment)
stoichiometry N [8]: 2

S. aureus DacACD-K variant (N166K, T172K), tag-less (domain or fragment)
stoichiometry N [9]: 2

B1: S. aureus phosphoglucosamine mutase GlmM, tag-less (enzyme)
chain: MGKYFGTDGVRGVANQELTPELAFKLGRYGGYVLAHNKGEKHPRVLVGRDTRVSGEMLESALIAGLISIGAEVMRLGIISTPGVAYLTRDMGAELGVMISASHNPVADNGIKFFGSDGFKLSDEQENEIEALLDQENPELPRPVGNDIVHYSDYFEGAQKYLSYLKSTVDVNFEGLKIALDGANGSTSSLAPFLFGDLEADTETIGCSPDGYNINEKCGSTHPEKLAEKVVETESDFGLAFDGDGDRIIAVDENGQIVDGDQIMFIIGQEMHKNQELNNDMIVSTVMSNLGFYKALEQEGIKSNKTKVGDRYVVEEMRRGNYNLGGEQSGHIVMMDYNTTGDGLLTGIQLASVIKMTGKSLSELAGQMKKYPQSLINVRVTDKYRVEENVDVKEVMTKVEVEMNGEGRILVRPSGTEPLVRVMVEAATDEDAERFAQQIADVVQDKMGLDK
notes: phosphoglucosamine mutase GlmM of S. aureus (LAC* genomic DNA); C-terminal 6-His tag removed at the thrombin site; In the tag-less DacACD/GlmM complex (SASBDB SASDE78) this chain stands with m1; also called tag-less GlmM; source: E. coli BL21 (DE3), purified (Ni-NTA, thrombin cleavage of the His-tag, size exclusion chromatography); not shown: His6, C-terminal, cleaved
stoichiometry N [10]: 2
